Measured values from patent US20150337046A1 (published 2015).

Biological target: T1, human LIGHT (hLIGHT), cell surface-expressed, full length (UniProt O43557 1-240)
T1 chain: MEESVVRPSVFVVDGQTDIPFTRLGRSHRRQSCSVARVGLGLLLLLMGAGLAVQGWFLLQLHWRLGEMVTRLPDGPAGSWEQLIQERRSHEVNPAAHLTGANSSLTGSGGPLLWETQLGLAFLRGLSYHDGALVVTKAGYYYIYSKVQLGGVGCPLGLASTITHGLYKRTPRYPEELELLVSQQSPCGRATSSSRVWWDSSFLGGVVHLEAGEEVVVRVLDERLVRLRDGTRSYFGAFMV
Experiment: FACS binding; 293-hLIGHT cells

B1: recombinant single kappa chain antibody of E1 heavy chain paired with Elkappa(B) (antibody, V domains shown)
VH: EVQLVESGGGLVQPGGSLRLSCAASGFTFSRFNMNWVRQAPGKGLEWVSYISSSSYTIYYADSVKGRFTISRDNAKNSLDLQMNSLRDEDTAVYYCARSIAAAFDYWGQGALVTVSS
VL: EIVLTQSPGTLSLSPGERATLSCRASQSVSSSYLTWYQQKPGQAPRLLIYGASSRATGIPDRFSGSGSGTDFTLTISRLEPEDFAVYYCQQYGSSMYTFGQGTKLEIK
B1 was tested, and the EC50 was 0.547 mg/L.

B2: E1 antibody (produced by hybridoma 124 E1, ATCC Accession No. PTA-7729) (antibody, V domains shown)
VH: B1 VH
VL: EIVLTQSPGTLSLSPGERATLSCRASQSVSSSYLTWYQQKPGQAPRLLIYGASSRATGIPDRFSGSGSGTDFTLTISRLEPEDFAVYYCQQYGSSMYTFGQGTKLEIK
B2 showed an EC50 of 0.463 mg/L.
